We go through one molecule from patent US20190352664A1, “COMPOSITIONS AND METHODS FOR CONTROLLING GENE EXPRESSION” (priority 2017, published 2019).

One data set has as its system LUC reporter. It counts as in vivo, Oryza sativa cultivar ZH11.
Another data set has as its system LUC, GFPER, TBF1-YFP. Nature of the data set: Transient expression of uORF-controlled LUC, GFPER and TBF1-YFP. It counts as in vivo, N. benthamiana.

B1: uORFsTBF1: 5′ leader sequence of TBF1 with two pathogen-responsive upstream open reading frames (nucleic acid)
DNA: TCTAGAAACAGCATCCGTTTTTATAATTTAATTTTCTTACAAAGGTAGGACCAACATTTGTGATCTATAAATCTTCCTACTACGTTATATAGAGACCCTTCGACATAACACTTAACTCGTTTATATATTTGTTTTACTTGTTTTGCACATACACACAAAAATAAAAAAGACTTTATATTTATTTACTTTTTAATCACACGGATTAGCTCCGGCGAAGTATGGTCGTCGTCTTCATCTTCTTCCTCCATCATCAGATTTTTCCTTAAATGGAAGAAACCAAACGAAACTCCGATCTTCTCCGTTCTCGTGTTTTCCTCTCTGGCTTTTATTGCTGGGATTGGGAATTTCTCACCGCTCTCTTGCTTTTTAGTTGCTGATTCTTTTTCCTTCGACTTTCTATTTCCAATCTTTCTTCTTCTCTTTGTGTATTAGATTATTTTTAGTTTTATTTTTCTGTGGTAAAATAAAAAAAGTTCGCCGGAG
With B1, the “translation of the LUC reporter in rice” value in the data set on LUC reporter (35S:uORFsTBF1-LUC vs 35S:uorfsTBF1-LUC) is on record as “could suppress translation of the reporter in rice”. The “LUC mRNA levels in rice” value in the data set with LUC reporter (in vivo) is “without significantly influencing mRNA levels”. The “suppression of cytosol-synthesized LUC and ER-synthesized GFPER” value in the data set with LUC, GFPER, TBF1-YFP (35S promoter, vs mutant uorfs (ATG to CTG)) is given as “largely suppress”. The mRNA levels entry in the data set on LUC, GFPER, TBF1-YFP (LUC and GFPER) is “without significantly affecting mRNA levels”. In addition, the “cell death induced by overexpression of TBF1 (TBF1-YFP)” value in the data set on LUC, GFPER, TBF1-YFP (vs 35S:uorfsTBF1-TBF1-YFP) was “tight enough to prevent cell death”.
